Test results from the supplement of paper PMC10567573.

B1: TRIM63 (parent)
chain: QRITQEQEKKLSFIEALIQQYQEQ

Variants of: B1
Assay: protein stability index of a GFP-peptide fusion (GPS, HEK-293T) (PSI 1-6); higher = more stable
Settings: c terminus: a fixed tail appended
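Also: lentivirally expressed fusions sorted by FACS into six bins by GFP to DsRed ratio, PSI derived from sequencing read proportions per bin multiplied by bin number.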

Variant | protein stability index
QRITQEQEKKLSFIETLIQQYQEQ [A16T] | 2.15
QRITQEQEKKLSFIENLIQQYQEQ [A16N] | 2.69
QRITQEQEKKLSFIEFLIQQYQEQ [A16F] | 2.57
QRITQEQEKKLSFIEGLIQQYQEQ [A16G] | 3.33
QRITQEQEKKLSFIEQLIQQYQEQ [A16Q] | 1.83
QRITQEQEKKLSFIEDLIQQYQEQ [A16D] | 3.16
QRITQEQEKKLSFIEILIQQYQEQ [A16I] | 3.03
QRITQEQEKKLSFIELLIQQYQEQ [A16L] | 1.7
QRITQEQEKKLSFIECLIQQYQEQ [A16C] | 2.46
QRITQEQEKKLSFIESLIQQYQEQ [A16S] | 2.45
QRITQEQEKKLSFIEHLIQQYQEQ [A16H] | 2.45
QRITQEQEKKLSFIERLIQQYQEQ [A16R] | 2.63
QRITQEQEKKLSFIEVLIQQYQEQ [A16V] | 1.76
QRITQEQEKKLSFIEPLIQQYQEQ [A16P] | 4.08
QRITQEQEKKLSFIEYLIQQYQEQ [A16Y] | 2.31
QRITQEQEKKLSFIEMLIQQYQEQ [A16M] | 3.77
QRITQEQEKKLSFIEELIQQYQEQ [A16E] | 2.95
QRITQEQEKKLSFIEWLIQQYQEQ [A16W] | 2.37
QRITQEQEKKLSFIEKLIQQYQEQ [A16K] | 2.25
QRITQEQEKKLSFIYALIQQYQEQ [E15Y] | 2.34
QRITQEQEKKLSFIAALIQQYQEQ [E15A] | 2.82
QRITQEQEKKLSFIHALIQQYQEQ [E15H] | 2.28
QRITQEQEKKLSFIFALIQQYQEQ [E15F] | 1.92
QRITQEQEKKLSFIIALIQQYQEQ [E15I] | 1.6

Variant | protein stability index
QRITQEQEKKLSFIRALIQQYQEQ [E15R] | 2.16
QRITQEQEKKLSFISALIQQYQEQ [E15S] | 2.12
QRITQEQEKKLSFIPALIQQYQEQ [E15P] | 3.48
QRITQEQEKKLSFICALIQQYQEQ [E15C] | 1.44
QRITQEQEKKLSFILALIQQYQEQ [E15L] | 2.56
QRITQEQEKKLSFIKALIQQYQEQ [E15K] | 2.11
QRITQEQEKKLSFITALIQQYQEQ [E15T] | 2.32
QRITQEQEKKLSFINALIQQYQEQ [E15N] | 2.04
QRITQEQEKKLSFIGALIQQYQEQ [E15G] | 2.44
QRITQEQEKKLSFIDALIQQYQEQ [E15D] | 2.19
QRITQEQEKKLSFIWALIQQYQEQ [E15W] | 2.5
QRITQEQEKKLSFIQALIQQYQEQ [E15Q] | 2.23
QRITQEQEWKLSFIEALIQQYQEQ [K9W] | 3.8
QRITQEQEMKLSFIEALIQQYQEQ [K9M] | 2.44
QRITQEQEFKLSFIEALIQQYQEQ [K9F] | 2.78
QRITQEQEDKLSFIEALIQQYQEQ [K9D] | 2.77
QRITQEQEGKLSFIEALIQQYQEQ [K9G] | 2.78
QRITQEQEYKLSFIEALIQQYQEQ [K9Y] | 2.2
QRITQEQELKLSFIEALIQQYQEQ [K9L] | 1.88
QRITQEQEEKLSFIEALIQQYQEQ [K9E] | 3.27
QRITQEQETKLSFIEALIQQYQEQ [K9T] | 2.41
QRITQEQEHKLSFIEALIQQYQEQ [K9H] | 2.6
QRITQEQEPKLSFIEALIQQYQEQ [K9P] | 3.01
QRITQEQEQKLSFIEALIQQYQEQ [K9Q] | 2.82

Variant | protein stability index
QRITQEQESKLSFIEALIQQYQEQ [K9S] | 2.7
QRITQEQEVKLSFIEALIQQYQEQ [K9V] | 2.22
QRITQEQEIKLSFIEALIQQYQEQ [K9I] | 1.79
QRITQEQERKLSFIEALIQQYQEQ [K9R] | 2.74
QRITQEQEKWLSFIEALIQQYQEQ [K10W] | 2.05
QRITQEQEKYLSFIEALIQQYQEQ [K10Y] | 1.73
QRITQEQEKALSFIEALIQQYQEQ [K10A] | 2.1
QRITQEQEKHLSFIEALIQQYQEQ [K10H] | 2.7
QRITQEQEKNLSFIEALIQQYQEQ [K10N] | 3
QRITQEQEKFLSFIEALIQQYQEQ [K10F] | 2.1
QRITQEQEKRLSFIEALIQQYQEQ [K10R] | 2.47
QRITQEQEKCLSFIEALIQQYQEQ [K10C] | 2.04
QRITQEQEKVLSFIEALIQQYQEQ [K10V] | 2.02
QRITQEQEKPLSFIEALIQQYQEQ [K10P] | 2.77
QRITQEQEKDLSFIEALIQQYQEQ [K10D] | 3.67
QRITQEQEKQLSFIEALIQQYQEQ [K10Q] | 1.95
QRITQEQEKILSFIEALIQQYQEQ [K10I] | 2.57
QRITQEQEKGLSFIEALIQQYQEQ [K10G] | 3.58
QRITQEQEKSLSFIEALIQQYQEQ [K10S] | 2.73
QRITQEQEKTLSFIEALIQQYQEQ [K10T] | 2.2
QRITQEQEKELSFIEALIQQYQEQ [K10E] | 3
QRITQEQEKLLSFIEALIQQYQEQ [K10L] | 1.72
QRITQEQEKKLSFQEALIQQYQEQ [I14Q] | 3.22
QRITQEQEKKLSFDEALIQQYQEQ [I14D] | 4.69

Variant | protein stability index
QRITQEQEKKLSFPEALIQQYQEQ [I14P] | 4.55
QRITQEQEKKLSFNEALIQQYQEQ [I14N] | 4.7
QRITQEQEKKLSFMEALIQQYQEQ [I14M] | 2.79
QRITQEQEKKLSFSEALIQQYQEQ [I14S] | 3.48
QRITQEQEKKLSFLEALIQQYQEQ [I14L] | 2.23
QRITQEQEKKLSFGEALIQQYQEQ [I14G] | 4.31
QRITQEQEKKLSFAEALIQQYQEQ [I14A] | 2.41
QRITQEQEKKLSFYEALIQQYQEQ [I14Y] | 2.87
QRITQEQEKKLSFHEALIQQYQEQ [I14H] | 3.2
QRITQEQEKKLSFEEALIQQYQEQ [I14E] | 2.77
QRITQEQEKKLSFREALIQQYQEQ [I14R] | 3.15
QRITQEQEKKLSFTEALIQQYQEQ [I14T] | 2.35
QRITQEQEKKLSFFEALIQQYQEQ [I14F] | 3
QRITQEQEKKLSFCEALIQQYQEQ [I14C] | 2.02
QRITQEQEKKLVFIEALIQQYQEQ [S12V] | 1.81
QRITQEQEKKLYFIEALIQQYQEQ [S12Y] | 1.85
QRITQEQEKKLFFIEALIQQYQEQ [S12F] | 2.56
QRITQEQEKKLMFIEALIQQYQEQ [S12M] | 1.86
QRITQEQEKKLGFIEALIQQYQEQ [S12G] | 2.71
QRITQEQEKKLNFIEALIQQYQEQ [S12N] | 2.74
QRITQEQEKKLCFIEALIQQYQEQ [S12C] | 2.25
QRITQEQEKKLTFIEALIQQYQEQ [S12T] | 3.23
